Target: purified cIAP1, Q13490
Sequence (Q13490 whole entry): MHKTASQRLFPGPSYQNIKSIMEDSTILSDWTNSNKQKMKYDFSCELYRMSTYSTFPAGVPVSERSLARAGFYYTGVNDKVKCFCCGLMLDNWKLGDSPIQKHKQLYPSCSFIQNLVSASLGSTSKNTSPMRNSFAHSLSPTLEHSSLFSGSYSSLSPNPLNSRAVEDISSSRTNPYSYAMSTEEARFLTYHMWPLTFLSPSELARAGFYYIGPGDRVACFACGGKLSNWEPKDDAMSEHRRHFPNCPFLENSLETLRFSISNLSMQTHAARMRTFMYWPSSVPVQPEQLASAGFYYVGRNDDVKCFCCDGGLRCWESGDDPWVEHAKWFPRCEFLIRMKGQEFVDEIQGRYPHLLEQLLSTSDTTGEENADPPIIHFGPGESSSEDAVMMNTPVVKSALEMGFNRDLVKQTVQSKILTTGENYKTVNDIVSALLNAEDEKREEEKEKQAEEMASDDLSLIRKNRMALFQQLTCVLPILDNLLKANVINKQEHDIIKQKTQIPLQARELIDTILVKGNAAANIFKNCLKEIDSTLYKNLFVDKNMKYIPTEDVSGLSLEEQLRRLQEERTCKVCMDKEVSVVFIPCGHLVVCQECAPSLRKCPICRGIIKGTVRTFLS

B1: recombinant active human caspase-8 (protein)
chain: SESQTLDKVYQMKSKPRGYCLIINNHNFAKAREKVPKLHSIRDRNGTHLDAGALTTTFEELHFEIKPHDDCTVEQIYEILKIYQLMDHSNMDCFICCILSHGDKGIIYGTDGQEAPIYELTSQFTGLKCPSLAGKPKVFFIQACQGDNYQKGIPVETDSEEQPYLEMDLSSPQTRYIPDEADFLLGMATVNNCVSYRNPAEGTWYIQSLCQSLRERCPRGDDILTILTEVNYEVSNKDDKKNMGKQMPQPTFTLRKKLVFPSD
B1 was tested, and the “caspase-8 protease activity (fluorogenic substrate Ac-IETD-AMC)” value was “purified cIAP1 also suppressed caspase-8 protease activity completely”.

From patent publication US20100135951
